Among the data in patent US20160272690A1 (BAO KANG BIOMEDICAL HEALTHCARE, published 2016) are IC50 values, retold here.

Bridges are numbered along the chain shown (N, C = ends). Where no end group is shown, it is not given here. [ ]: non-standard residue; d: D form. hCys = N[C@@H](CCS)C(=O)O

Usually IC50 stands for the concentration that inhibits the measured activity by half. High values mean weaker potency in that assay, low ones greater potency in that assay.

This assay concerns the target T1, TEAD.
T1 chain: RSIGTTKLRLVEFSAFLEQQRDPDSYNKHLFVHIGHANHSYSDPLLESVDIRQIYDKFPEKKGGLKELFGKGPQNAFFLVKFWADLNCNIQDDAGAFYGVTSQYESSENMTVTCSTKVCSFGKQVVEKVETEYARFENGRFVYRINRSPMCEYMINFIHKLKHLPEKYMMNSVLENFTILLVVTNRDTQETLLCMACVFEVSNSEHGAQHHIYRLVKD
The experiment in a line: IC50 for TEAD binding (TR-FRET test). In general terms: Time-resolved FRET reads energy transfer from a long-lived donor to a nearby acceptor.

VPM[hCys]LRKLPCSFCDPPE (disulfide 4-13) [polypeptide represented by SEQ ID NO.: 9] registered an IC50 of 25 nM. In other words, the double-digit nanomolar range.

In turn, VPMCLRKLPESFCHPPE (disulfide 4-13) [polypeptide represented by SEQ ID NO.: 8] registered a 50% inhibitory concentration (IC50) of 28 nM.
